Source: patent publication US20070087400A1, “Covalent tethering of functional groups to proteins and substrates therefor” (priority 2004, published 2007)

Assays:
[1] = Precipitation of DhaA proteins with (NH4)2SO4; format: physicochemical; conditions: 2 hours, 4° C.
Procedure: Aliquots of the supernatant obtained from E. coli expressing DhaA (WT or one of the mutants) were treated with increasing concentrations of (NH4)2SO4. The proteins were exposed to each (NH4)2SO4 concentration for 2 hours (4° C.), pelleted by centrifugation, dialyzed overnight against buffer A, and resolved on SDS-PAGE.

[2] = In vitro covalent alkyl-enzyme formation in crude lysates; conditions: 25 μM substrate, 2 hours at room temperature
[3] = Thermostability analysis (residual activity by FP assay); format: physicochemical; conditions: 60 minute incubations
Procedure: Thermostability analysis. The thermostability profiles of the DhaA mutants were determined by measuring the residual activity of the purified proteins following 15, 30 or 60 minute incubations at 4, 22, 30, 37, 42, 50 or 60° C. The FP assay was performed at room temperature (about 25° C.). […] For each clone, the labeling rate (slope of the linear range) was calculated for each condition. The rate observed following a 15 minute incubation at 4° C. was arbitrarily assigned as 100% activity. The residual activity (%) was calculated for each condition. To determine stability, for each incubation time, the % of residual activity was plotted against the incubation temperatures. To calculate half-life, for each incubation temperature, the % of residual activity was plotted against the incubation time. The time where 50% activity was lost was extrapolated from the graph.

[4] = DhaA capture using immobilized biotin chloroalkane substrates (ELISA-type); format: binding
Procedure: DhaA capture using immobilized chloroalkane substrates. […] Reactions between immobilized substrate and mutant DhaAs were performed using purified GST-DhaA-Flag fusions. Various concentrations of protein (100 μL; diluted in PBSTB) were incubated with immobilized substrate for various times at 25° C., and the reactions were stopped by emptying the plates and washing 4× with PBST. To detect bound DhaA, 100 μL anti-GST-HRP (Amersham) was added to each well at a 1:10,000 dilution (in PBSTB) and the plates incubated for 1 hour at 25° C.

[5] = In vivo labeling of DhaA mutants expressed in CHO-K1 cells (cell-to-gel analysis); format: cell-based; conditions: substrate concentration 5 μM
Procedure: Cell-to-gel analysis. […] Proteins (2-10 μl/lane) were resolved on SDS-PAGE (4-20% gradient gels).

[6] = Covalent alkyl-enzyme formation in whole cells; conditions: 15 μM substrate, 4° C., approximately 18 hours
[7] = Protein immobilization assay (substrate capture using immobilized DhaA); conditions: biotin-PEG4-14-Cl substrate
[8] = Hydrolysis of FAP by BlaZ (loss of absorbance at 344 nm); format: biochemical, Staphylococcus aureus PC1; conditions: 25° C., pH 6.8, up to 60 minutes
Procedure: The chromogenic substrate 6-β-[(Furylacryloyl)amido]penicillanic acid triethylamine salt (FAP) was purchased from Calbiochem (La Jolla, Calif.). […] All assays were performed at 25° C. in 0.1 M potassium phosphate buffer at pH 6.8.

[9] = Hydrolysis of CCF2 (FRET-based substrate) by BlaZ; format: biochemical, Staphylococcus aureus PC1
Description: In CCF2, the cephalosporin core links a 7-hydroxycoumarin to a fluorescein. In the intact molecule, excitation of the coumarin (Eex-409 nm) results in FRET to the fluorescein, which emits green light (Eem-520 nm). Cleavage of CCF2 by β-lactamase results in spatial separation of the two dyes, disrupting FRET such that excitation of coumarin now gives rise to blue fluorescence (Eex-447 nm). CCF2 was purchased from Aurora Biosciences Corporation (San Diego, Calif.). Reduction of the FRET signal and an increase in blue fluorescence were measured on Fluorescence Multi-well Plate Reader CytoFluorI (PerSeptive Biosystems, Framingham, Mass., USA).

B1: DhaA.H272Q: DhaA mutant with H272Q substitution (protein, UniProt P0A3G2 1-293, looked up, variant H272Q)
Haloalkane dehalogenase: MSEIGTGFPFDPHYVEVLGERMHYVDVGPRDGTPVLFLHGNPTSSYLWRNIIPHVAPSHRCIAPDLIGMGKSDKPDLDYFFDDHVRYLDAFIEALGLEEVVLVIHDWGSALGFHWAKRNPERVKGIACMEFIRPIPTWDEWPEFARETFQAFRTADVGRELIIDQNAFIEGALPKCVVRPLTEVEMDHYREPFLKPVDREPLWRFPNELPIAGEPANIVALVEAYMNWLHQSPVPKLLFWGTPGVLIPPAEAARLAESLPNCKTVDIGPGLQYLQEDNPDLIGSEIARWLPAL
With B1 the “(NH4)2SO4 concentration at which the protein was precipitated” value (“(NH4)2SO4 concentration” for short) [1] was 10%.

B2: DhaA.WT: wild-type Rhodococcus rhodochrous dehalogenase (DhaA) (protein, UniProt P0A3G2 1-293, looked up)
Haloalkane dehalogenase: MSEIGTGFPFDPHYVEVLGERMHYVDVGPRDGTPVLFLHGNPTSSYLWRNIIPHVAPSHRCIAPDLIGMGKSDKPDLDYFFDDHVRYLDAFIEALGLEEVVLVIHDWGSALGFHWAKRNPERVKGIACMEFIRPIPTWDEWPEFARETFQAFRTADVGRELIIDQNAFIEGALPKCVVRPLTEVEMDHYREPFLKPVDREPLWRFPNELPIAGEPANIVALVEAYMNWLHQSPVPKLLFWGTPGVLIPPAEAARLAESLPNCKTVDIGPGLHYLQEDNPDLIGSEIARWLPAL
For B2, the “formation of alkyl-enzyme covalent intermediate in crude lysates” value [2] was “No such product could be detected”.

B3: DhaA.H272G: DhaA mutant with H272G substitution (protein, UniProt P0A3G2 1-293, looked up, variant H272G)
Haloalkane dehalogenase: MSEIGTGFPFDPHYVEVLGERMHYVDVGPRDGTPVLFLHGNPTSSYLWRNIIPHVAPSHRCIAPDLIGMGKSDKPDLDYFFDDHVRYLDAFIEALGLEEVVLVIHDWGSALGFHWAKRNPERVKGIACMEFIRPIPTWDEWPEFARETFQAFRTADVGRELIIDQNAFIEGALPKCVVRPLTEVEMDHYREPFLKPVDREPLWRFPNELPIAGEPANIVALVEAYMNWLHQSPVPKLLFWGTPGVLIPPAEAARLAESLPNCKTVDIGPGLGYLQEDNPDLIGSEIARWLPAL
In the case of B3, the “(NH4)2SO4 concentration” value [1] is reported as 10%.

B4: DhaA.H272F H11: first generation DhaA.H272F mutant with K175M and C176G (protein, UniProt P0A3G2 1-293, looked up, variant K175M C176G H272F)
Haloalkane dehalogenase: MSEIGTGFPFDPHYVEVLGERMHYVDVGPRDGTPVLFLHGNPTSSYLWRNIIPHVAPSHRCIAPDLIGMGKSDKPDLDYFFDDHVRYLDAFIEALGLEEVVLVIHDWGSALGFHWAKRNPERVKGIACMEFIRPIPTWDEWPEFARETFQAFRTADVGRELIIDQNAFIEGALPMGVVRPLTEVEMDHYREPFLKPVDREPLWRFPNELPIAGEPANIVALVEAYMNWLHQSPVPKLLFWGTPGVLIPPAEAARLAESLPNCKTVDIGPGLFYLQEDNPDLIGSEIARWLPAL
With B4 the “retained significant labeling activity following incubation as high as” value [3] was no more than 50 °C, the “reaction with all biotin substrates tested” value ([4]; biotin-14-Cl, biotin-X-14-Cl, biotin-PEG4-14-Cl) was “reacted poorly” and the “in vivo labeling performance compared to parent DhaA.H272F” value [5] was “superior performance characteristics”.

B5: DhaA.H272F: DhaA mutant, catalytic His272 replaced with Phe (protein, UniProt P0A3G2 1-293, looked up, variant H272F)
Haloalkane dehalogenase: MSEIGTGFPFDPHYVEVLGERMHYVDVGPRDGTPVLFLHGNPTSSYLWRNIIPHVAPSHRCIAPDLIGMGKSDKPDLDYFFDDHVRYLDAFIEALGLEEVVLVIHDWGSALGFHWAKRNPERVKGIACMEFIRPIPTWDEWPEFARETFQAFRTADVGRELIIDQNAFIEGALPKCVVRPLTEVEMDHYREPFLKPVDREPLWRFPNELPIAGEPANIVALVEAYMNWLHQSPVPKLLFWGTPGVLIPPAEAARLAESLPNCKTVDIGPGLFYLQEDNPDLIGSEIARWLPAL
In the case of B5, the “formation of covalent alkyl-enzyme intermediate in whole cells” value [6] is reported as “capable of generating a covalent alkyl-enzyme intermediate” and the “formation of alkyl-enzyme covalent intermediate in crude lysates” value [2] is reported as “very efficient at producing this intermediate”.

B6: DhaA.H272F YM: DhaA.H272F based mutant with Y273M (protein, UniProt P0A3G2 1-293, looked up, variant H272F Y273M)
Haloalkane dehalogenase: MSEIGTGFPFDPHYVEVLGERMHYVDVGPRDGTPVLFLHGNPTSSYLWRNIIPHVAPSHRCIAPDLIGMGKSDKPDLDYFFDDHVRYLDAFIEALGLEEVVLVIHDWGSALGFHWAKRNPERVKGIACMEFIRPIPTWDEWPEFARETFQAFRTADVGRELIIDQNAFIEGALPKCVVRPLTEVEMDHYREPFLKPVDREPLWRFPNELPIAGEPANIVALVEAYMNWLHQSPVPKLLFWGTPGVLIPPAEAARLAESLPNCKTVDIGPGLFMLQEDNPDLIGSEIARWLPAL
For B6, the “reaction with immobilized biotin-PEG4-14-Cl” value [4] was “react most efficiently” and the “activity compared to parental clones” value [7] was “significantly improved”.

B7: DhaA.H272F YL: DhaA.H272F based mutant with Y273L (protein, UniProt P0A3G2 1-293, looked up, variant H272F Y273L)
Haloalkane dehalogenase: MSEIGTGFPFDPHYVEVLGERMHYVDVGPRDGTPVLFLHGNPTSSYLWRNIIPHVAPSHRCIAPDLIGMGKSDKPDLDYFFDDHVRYLDAFIEALGLEEVVLVIHDWGSALGFHWAKRNPERVKGIACMEFIRPIPTWDEWPEFARETFQAFRTADVGRELIIDQNAFIEGALPKCVVRPLTEVEMDHYREPFLKPVDREPLWRFPNELPIAGEPANIVALVEAYMNWLHQSPVPKLLFWGTPGVLIPPAEAARLAESLPNCKTVDIGPGLFLLQEDNPDLIGSEIARWLPAL
For B7, the “reaction with immobilized biotin-PEG4-14-Cl” value [4] was “react most efficiently” and the “activity compared to parental clones” value [7] was “significantly improved”.

B8: DhaA.H272A: DhaA mutant with H272A substitution (protein, UniProt P0A3G2 1-293, looked up, variant H272A)
Haloalkane dehalogenase: MSEIGTGFPFDPHYVEVLGERMHYVDVGPRDGTPVLFLHGNPTSSYLWRNIIPHVAPSHRCIAPDLIGMGKSDKPDLDYFFDDHVRYLDAFIEALGLEEVVLVIHDWGSALGFHWAKRNPERVKGIACMEFIRPIPTWDEWPEFARETFQAFRTADVGRELIIDQNAFIEGALPKCVVRPLTEVEMDHYREPFLKPVDREPLWRFPNELPIAGEPANIVALVEAYMNWLHQSPVPKLLFWGTPGVLIPPAEAARLAESLPNCKTVDIGPGLAYLQEDNPDLIGSEIARWLPAL
With B8 the “(NH4)2SO4 concentration” value [1] was 10%.

B9: DhaA.H272F YC: DhaA.H272F based mutant with Y273C (protein, UniProt P0A3G2 1-293, looked up, variant H272F Y273C)
Haloalkane dehalogenase: MSEIGTGFPFDPHYVEVLGERMHYVDVGPRDGTPVLFLHGNPTSSYLWRNIIPHVAPSHRCIAPDLIGMGKSDKPDLDYFFDDHVRYLDAFIEALGLEEVVLVIHDWGSALGFHWAKRNPERVKGIACMEFIRPIPTWDEWPEFARETFQAFRTADVGRELIIDQNAFIEGALPKCVVRPLTEVEMDHYREPFLKPVDREPLWRFPNELPIAGEPANIVALVEAYMNWLHQSPVPKLLFWGTPGVLIPPAEAARLAESLPNCKTVDIGPGLFCLQEDNPDLIGSEIARWLPAL
With B9 the “activity compared to parental clones” value [7] was “significantly improved”.

B10: BlaZ.N170Q (protein, UniProt P00807 25-281, looked up, variant N170Q)
Beta-lactamase: KELNDLEKKYNAHIGVYALDTKSGKEVKFNSDKRFAYASTSKAINSAILLEQVPYNKLNKKVHINKDDIVAYSPILEKYVGKDITLKALIEASMTYSDNTANNKIIKEIGGIKKVKQRLKELGDKVTNPVRYEIELNYYSPKSKKDTSTPAAFGKTLNKLIANGKLSKEQKKFLLDLMLNNKSGDTLIKDGVPKDYKVADKSGQAITYASRNDVAFVYPKGQSEPIVLVIFTNKDNKSDKPNDKLISETAKSVMKEF
With B10 the “hydrolysis of FAP” value [8] was “could not be detected” and the “hydrolysis of CCF2” value [9] was “reduced the ability”.
